In publication doi:10.1101/2023.04.17.537135 (bioRxiv, 2023):
Changes are numbered by the printed parent chain.

Legend:
Test in all cases: pull-down
[1] = target: T1, His-tagged AHL10, non-mutated wild type (Arabidopsis thaliana, UniProt O22812 1-351)
T1 sequence (looked up): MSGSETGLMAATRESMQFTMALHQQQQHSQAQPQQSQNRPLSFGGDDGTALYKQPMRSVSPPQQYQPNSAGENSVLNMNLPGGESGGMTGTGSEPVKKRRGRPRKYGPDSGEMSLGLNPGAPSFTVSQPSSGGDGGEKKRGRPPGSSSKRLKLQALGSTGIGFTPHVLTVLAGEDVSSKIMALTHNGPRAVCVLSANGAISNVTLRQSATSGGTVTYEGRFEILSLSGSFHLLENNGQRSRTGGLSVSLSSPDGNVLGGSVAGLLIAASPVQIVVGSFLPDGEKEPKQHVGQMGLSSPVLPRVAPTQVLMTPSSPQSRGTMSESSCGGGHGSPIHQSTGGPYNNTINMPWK

[2] = target: T2, His-tagged AHL10 S313D (phosphomimic) (Arabidopsis thaliana, UniProt O22812 1-351, S313D)
T2 sequence (looked up): T1 sequence (looked up) with S313D

[3] = target: T3, His-tagged AHL10 S314D (phosphomimic) (Arabidopsis thaliana, UniProt O22812 1-351, S314D)
T3 sequence (looked up): T1 sequence (looked up) with S314D

Measured: binding result

B1: GST-tagged RRP6L1 C-terminal 337 amino acids (domain or fragment, Arabidopsis thaliana, UniProt Q0WVE8 301-637, looked up)
chain: YKRSYDVCMQLYEKELWTRDSYLHVYGVQTGNLNAVQLSIVAGLCEWRDRIARADDESTGYVLPNKTLFDIAKEMPIVVAQLRRLLKSKLPYLERNFDAVISVIRRSMQNAAAFEPVVQSLKDRRPETVVEMNIEPKIEKTDTGASASSLSLEKVCVDDSKKQSSGFGVLPLKRKLESDKTVVEKNIEPKIEKTGTEASASSLSSKKVCVDDSKKQSSGFGVLLSKRKFESDNKVKEEVKVSKSKPDKVIIVVDDDDDDDDDESYEQSTKAADALDRVSETPSKGSPSLTQKPKTCNTEVIVLDDDDDSESREDEDMRRRSEKHRRFMNMKRGFLNI
binds: all assays above

B2: GST-tagged RRP6L1 N-terminal 300 amino acids (domain or fragment, Arabidopsis thaliana, UniProt Q0WVE8 1-300, looked up)
chain: MRFDDPMDEFKRNRKMEEDSKKVIDVKVAESDKGFAKFGKAEVPFHIPTLTKPQEEYKILVDNANNPFEHVLLEKSEDGLRFIHPLEELSVMDFVDRNLSEMRPVKPLPLEETPFKLVEEVKDLEDLAAALQSVEEFAVDLEHNQYRTFQGLTCLMQISTRTEDYIVDIFKLWDHIGPYLRELFKDPKKKKVIHGADRDIIWLQRDFGIYVCNLFDTGQASRVLKLERNSLEFLLKHYCGVAANKEYQKADWRIRPLPDVMKRYAREDTHYLLYIYDVMRMELHTMAKEDEQSDSPLVEV
binds: all assays above
